Experimental data as given in PMC9482650, “Quantitative fragmentomics allow affinity mapping of interactomes” (Nature Communications, 2022).
Each block holds one binder with its values, some of them ahead of it.

Legend:
Test in all cases: holdup assay
Parameters in all cases: key: below the threshold = too weak to quantify, mostly under pKd 3.1 to 4
PDZRN4_1, Q6ZMN7 = molecular target: PDZRN4_1, Q6ZMN7
DVL3, Q92997 = molecular target: T1, DVL3, Q92997
T1 sequence (Q92997 244-331, limits assumed, looked up): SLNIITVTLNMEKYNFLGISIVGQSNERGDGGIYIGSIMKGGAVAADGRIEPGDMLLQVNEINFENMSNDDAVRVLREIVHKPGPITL

SNTG2, Q9NY99 = molecular target: T2, SNTG2, Q9NY99
T2 sequence (Q9NY99 68-166, limits assumed, looked up): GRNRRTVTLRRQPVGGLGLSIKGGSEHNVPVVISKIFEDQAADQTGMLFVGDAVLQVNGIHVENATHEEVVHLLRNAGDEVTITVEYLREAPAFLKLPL

MAGI2_3, Q86UL8 = molecular target: MAGI2_3, Q86UL8
Chain of MAGI2_3, Q86UL8 (Q86UL8 600-682): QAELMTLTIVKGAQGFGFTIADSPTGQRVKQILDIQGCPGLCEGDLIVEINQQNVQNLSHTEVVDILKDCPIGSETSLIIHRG

PDZD7_3, Q9H5P4 = molecular target: T3, PDZD7_3, Q9H5P4
T3 sequence (Q9H5P4 857-944, limits assumed, looked up): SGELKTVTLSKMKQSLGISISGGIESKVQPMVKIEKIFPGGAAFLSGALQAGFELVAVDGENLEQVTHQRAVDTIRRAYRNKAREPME

APBA3_1, O96018 = molecular target: T4, APBA3_1, O96018
T4 sequence (O96018 389-490, limits assumed, looked up): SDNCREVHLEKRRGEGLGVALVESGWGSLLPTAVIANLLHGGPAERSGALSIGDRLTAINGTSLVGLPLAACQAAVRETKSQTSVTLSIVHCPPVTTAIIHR

TIAM2, Q8IVF5 = molecular target: T5, TIAM2, Q8IVF5
T5 sequence (Q8IVF5 885-986, limits assumed, looked up): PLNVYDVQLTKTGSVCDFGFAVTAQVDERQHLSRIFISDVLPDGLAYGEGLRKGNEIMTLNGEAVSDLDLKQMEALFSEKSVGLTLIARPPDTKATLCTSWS

FRMPD2_3, Q68DX3 = molecular target: FRMPD2_3, Q68DX3
Chain of FRMPD2_3, Q68DX3 (Q68DX3 1073-1166): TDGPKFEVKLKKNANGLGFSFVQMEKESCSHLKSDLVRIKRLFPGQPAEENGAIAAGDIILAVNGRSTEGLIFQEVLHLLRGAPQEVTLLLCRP

RHPN1, Q8TCX5 = molecular target: T6, RHPN1, Q8TCX5
T6 sequence (Q8TCX5 508-602, limits assumed, looked up): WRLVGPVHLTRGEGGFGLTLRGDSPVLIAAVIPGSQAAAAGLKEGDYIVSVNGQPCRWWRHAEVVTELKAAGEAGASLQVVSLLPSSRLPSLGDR

DLG2_3, Q15700 = molecular target: DLG2_3, Q15700
SIPA1L2, Q9P2F8 = molecular target: T7, SIPA1L2, Q9P2F8
T7 sequence (Q9P2F8 945-1036, limits assumed, looked up): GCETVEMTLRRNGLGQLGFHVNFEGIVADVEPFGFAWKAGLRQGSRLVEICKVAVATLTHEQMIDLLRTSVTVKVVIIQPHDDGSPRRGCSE

HTRA4, P83105 = molecular target: T8, HTRA4, P83105
T8 sequence (P83105 378-476, limits assumed, looked up): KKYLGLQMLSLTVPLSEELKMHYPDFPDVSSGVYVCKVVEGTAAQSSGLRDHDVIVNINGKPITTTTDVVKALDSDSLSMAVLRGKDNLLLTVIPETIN

FRMPD4, Q14CM0 = molecular target: FRMPD4, Q14CM0
Chain of FRMPD4, Q14CM0 (Q14CM0 67-160): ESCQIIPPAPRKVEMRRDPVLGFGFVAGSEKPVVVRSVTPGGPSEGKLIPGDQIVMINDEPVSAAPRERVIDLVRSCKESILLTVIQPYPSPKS

FRMPD1, Q5SYB0 = molecular target: T9, FRMPD1, Q5SYB0
T9 sequence (Q5SYB0 52-145, limits assumed, looked up): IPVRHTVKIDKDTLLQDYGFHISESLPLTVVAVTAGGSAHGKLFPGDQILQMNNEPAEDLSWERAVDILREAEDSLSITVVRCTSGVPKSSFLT

GRASP, Q7Z6J2 = molecular target: GRASP, Q7Z6J2
Chain of GRASP, Q7Z6J2 (Q7Z6J2 96-193): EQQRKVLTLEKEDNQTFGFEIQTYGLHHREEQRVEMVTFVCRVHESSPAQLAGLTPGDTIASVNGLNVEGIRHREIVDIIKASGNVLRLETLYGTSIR

FRMPD2_2, Q68DX3 = molecular target: FRMPD2_2, Q68DX3
Chain of FRMPD2_2, Q68DX3 (Q68DX3 944-1038): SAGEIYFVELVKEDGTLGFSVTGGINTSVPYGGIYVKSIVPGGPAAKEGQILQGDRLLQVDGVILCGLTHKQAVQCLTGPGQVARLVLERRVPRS

NHERF4_4, Q86UT5 = molecular target: NHERF4_4, Q86UT5
Chain of NHERF4_4, Q86UT5 (Q86UT5 464-550): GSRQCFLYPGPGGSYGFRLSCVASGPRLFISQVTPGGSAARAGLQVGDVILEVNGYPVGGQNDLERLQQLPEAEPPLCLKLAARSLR

ARHGEF12, Q9NZN5-2 = molecular target: ARHGEF12, Q9NZN5-2
Chain of ARHGEF12, Q9NZN5-2 (Q9NZN5 other isoform, or with tags, fused parts or gaps): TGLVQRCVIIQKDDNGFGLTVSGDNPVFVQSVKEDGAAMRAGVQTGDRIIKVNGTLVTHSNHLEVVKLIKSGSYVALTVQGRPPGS

FRMPD2_1, Q68DX3 = molecular target: FRMPD2_1, Q68DX3
Chain of FRMPD2_1, Q68DX3 (Q68DX3 770-861): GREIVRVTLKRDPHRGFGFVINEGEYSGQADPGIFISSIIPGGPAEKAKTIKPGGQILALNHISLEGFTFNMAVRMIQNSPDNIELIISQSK

RAPGEF6, Q8TEU7 = molecular target: T10, RAPGEF6, Q8TEU7
T10 sequence (Q8TEU7 525-625, limits assumed, looked up): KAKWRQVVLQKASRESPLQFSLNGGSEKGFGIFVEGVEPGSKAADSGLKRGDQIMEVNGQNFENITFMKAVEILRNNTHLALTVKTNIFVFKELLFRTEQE

LNX1_1, Q8TBB1 = molecular target: LNX1_1, Q8TBB1
Chain of LNX1_1, Q8TBB1 (Q8TBB1 261-371): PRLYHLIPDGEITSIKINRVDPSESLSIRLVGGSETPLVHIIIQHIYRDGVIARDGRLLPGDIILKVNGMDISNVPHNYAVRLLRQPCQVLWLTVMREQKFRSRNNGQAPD

Inadl_6, Q8NI35 = molecular target: Inadl_6, Q8NI35
Chain of Inadl_6, Q8NI35 (Q8NI35 1058-1167): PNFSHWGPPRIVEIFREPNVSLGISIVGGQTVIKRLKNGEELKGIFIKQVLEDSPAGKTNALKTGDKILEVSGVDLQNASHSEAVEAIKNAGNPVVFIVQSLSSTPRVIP

GRIP2_4, Q9C0E4 = molecular target: GRIP2_4, Q9C0E4
Chain of GRIP2_4, Q9C0E4 (Q9C0E4 446-548): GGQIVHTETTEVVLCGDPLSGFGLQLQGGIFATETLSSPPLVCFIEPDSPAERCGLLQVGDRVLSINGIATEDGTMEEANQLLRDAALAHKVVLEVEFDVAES

MAGI2_6, Q86UL8 = molecular target: MAGI2_6, Q86UL8
Chain of MAGI2_6, Q86UL8 (Q86UL8 1141-1229): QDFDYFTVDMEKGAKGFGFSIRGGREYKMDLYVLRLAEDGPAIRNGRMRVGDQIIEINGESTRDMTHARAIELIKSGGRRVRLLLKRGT

PTPN13_1, Q12923 = molecular target: T11, PTPN13_1, Q12923
T11 sequence (Q12923 1088-1188, limits assumed, looked up): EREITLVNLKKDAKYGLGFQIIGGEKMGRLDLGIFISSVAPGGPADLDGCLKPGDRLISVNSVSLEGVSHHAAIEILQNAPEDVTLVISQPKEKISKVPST

Inadl_8, Q8NI35 = molecular target: Inadl_8, Q8NI35
Chain of Inadl_8, Q8NI35 (Q8NI35 1425-1530): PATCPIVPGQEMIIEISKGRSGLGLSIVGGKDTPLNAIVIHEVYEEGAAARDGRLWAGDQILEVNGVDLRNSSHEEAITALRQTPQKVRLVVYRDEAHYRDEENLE

LNX1_2, Q8TBB1 = molecular target: LNX1_2, Q8TBB1
Chain of LNX1_2, Q8TBB1 (Q8TBB1 371-470): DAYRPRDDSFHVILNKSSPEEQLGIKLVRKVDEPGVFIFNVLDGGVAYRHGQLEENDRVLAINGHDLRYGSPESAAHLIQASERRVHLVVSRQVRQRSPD

[1] = plain residues with an end cap or a label only (N-terminal biotin on a linker: ado-ado)
[2] = plain residues with an end cap or a label only (N-terminal biotin on a linker: ahx)

Chain of PDZRN4_1, Q6ZMN7 (Q6ZMN7 213-318): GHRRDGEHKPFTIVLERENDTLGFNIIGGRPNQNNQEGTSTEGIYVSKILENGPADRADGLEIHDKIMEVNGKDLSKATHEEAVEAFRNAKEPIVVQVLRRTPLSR

pKd (PDZRN4_1, Q6ZMN7; [1]): below the threshold
pKd (DVL3, Q92997; [1]): 4.48
pKd (SNTG2, Q9NY99; [1]): below the threshold
pKd (MAGI2_3, Q86UL8; [1]): 3.7
pKd (PDZD7_3, Q9H5P4; [1]): 4.15
pKd (APBA3_1, O96018; [1]): 3.55
pKd (TIAM2, Q8IVF5; [1]): 4.16
pKd (FRMPD2_3, Q68DX3; [1]): 3.49
pKd (RHPN1, Q8TCX5; [1]): 3.5
pKd (DLG2_3, Q15700; [1]): 3.73
pKd (SIPA1L2, Q9P2F8; [1]): 3.54
pKd (HTRA4, P83105; [1]): 3.81
pKd (FRMPD4, Q14CM0; [1]): 3.5
pKd (FRMPD1, Q5SYB0; [1]): below the threshold
pKd (GRASP, Q7Z6J2; [1]): 4.08
pKd (FRMPD2_2, Q68DX3; [1]): 3.59
pKd (NHERF4_4, Q86UT5; [1]): 4.1
pKd (ARHGEF12, Q9NZN5-2; [1]): below the threshold
pKd (FRMPD2_1, Q68DX3; [1]): below the threshold
pKd (RAPGEF6, Q8TEU7; [1]): 3.61
pKd (LNX1_1, Q8TBB1; [1]): 3.75
pKd (Inadl_6, Q8NI35; [1]): 3.57
pKd (GRIP2_4, Q9C0E4; [1]): below the threshold
pKd (MAGI2_6, Q86UL8; [1]): 3.81
pKd (PTPN13_1, Q12923; [1]): 3.5
pKd (Inadl_8, Q8NI35; [1]): below the threshold
pKd (LNX1_2, Q8TBB1; [1]): below the threshold
Binder: SLNANEVEWF [RNF130, Q86XS8]

pKd (PDZRN4_1, Q6ZMN7; [1]): 4.25
pKd (DVL3, Q92997; [1]): below the threshold
pKd (SNTG2, Q9NY99; [1]): 3.6
pKd (MAGI2_3, Q86UL8; [1]): below the threshold
pKd (PDZD7_3, Q9H5P4; [1]): 3.99
pKd (APBA3_1, O96018; [1]): below the threshold
pKd (TIAM2, Q8IVF5; [1]): below the threshold
pKd (FRMPD2_3, Q68DX3; [1]): below the threshold
pKd (RHPN1, Q8TCX5; [1]): 3.95
pKd (DLG2_3, Q15700; [1]): 3.9
pKd (SIPA1L2, Q9P2F8; [1]): below the threshold
pKd (HTRA4, P83105; [1]): 4.29
pKd (FRMPD4, Q14CM0; [1]): 3.51
pKd (FRMPD1, Q5SYB0; [1]): below the threshold
pKd (GRASP, Q7Z6J2; [1]): 4.31
pKd (FRMPD2_2, Q68DX3; [1]): 3.54
pKd (NHERF4_4, Q86UT5; [1]): below the threshold
pKd (ARHGEF12, Q9NZN5-2; [1]): 4.08
pKd (FRMPD2_1, Q68DX3; [1]): 3.86
pKd (RAPGEF6, Q8TEU7; [1]): below the threshold
pKd (LNX1_1, Q8TBB1; [1]): 4.17
pKd (Inadl_6, Q8NI35; [1]): below the threshold
pKd (GRIP2_4, Q9C0E4; [1]): below the threshold
pKd (MAGI2_6, Q86UL8; [1]): 4.46
pKd (PTPN13_1, Q12923; [1]): below the threshold
pKd (Inadl_8, Q8NI35; [1]): 3.82
pKd (LNX1_2, Q8TBB1; [1]): 3.6
Binder: VLYPREGTEV [FOXI1, Q12951]

pKd (PDZRN4_1, Q6ZMN7; [2]): below the threshold
pKd (DVL3, Q92997; [2]): below the threshold
pKd (SNTG2, Q9NY99; [2]): below the threshold
pKd (MAGI2_3, Q86UL8; [2]): below the threshold
pKd (PDZD7_3, Q9H5P4; [2]): below the threshold
pKd (APBA3_1, O96018; [2]): below the threshold
pKd (TIAM2, Q8IVF5; [2]): below the threshold
pKd (FRMPD2_3, Q68DX3; [2]): below the threshold
pKd (RHPN1, Q8TCX5; [2]): below the threshold
pKd (DLG2_3, Q15700; [2]): below the threshold
pKd (SIPA1L2, Q9P2F8; [2]): below the threshold
pKd (HTRA4, P83105; [2]): below the threshold
pKd (FRMPD4, Q14CM0; [2]): 3.55
pKd (FRMPD1, Q5SYB0; [2]): below the threshold
pKd (GRASP, Q7Z6J2; [2]): below the threshold
pKd (FRMPD2_2, Q68DX3; [2]): below the threshold
pKd (NHERF4_4, Q86UT5; [2]): below the threshold
pKd (ARHGEF12, Q9NZN5-2; [2]): below the threshold
pKd (FRMPD2_1, Q68DX3; [2]): below the threshold
pKd (RAPGEF6, Q8TEU7; [2]): below the threshold
pKd (LNX1_1, Q8TBB1; [2]): below the threshold
pKd (Inadl_6, Q8NI35; [2]): below the threshold
pKd (GRIP2_4, Q9C0E4; [2]): below the threshold
pKd (MAGI2_6, Q86UL8; [2]): below the threshold
pKd (PTPN13_1, Q12923; [2]): below the threshold
pKd (Inadl_8, Q8NI35; [2]): below the threshold
pKd (LNX1_2, Q8TBB1; [2]): below the threshold
Binder: EKQAKGDTEF [CACYBP, Q9HB71]
